Experimental data reported in PMC3136132.

Columns and labels:
[1] = biological target: T1, FMRP (UniProt Q06787 1-632); test: biotin-RNA affinity capture; 2 uM RNA; slightly less than full-length BC1, P=.15; 50 mM Tris-HCl pH 7.4, 2 mM MgCl2, 150 mM KCl, 1 mM EDTA, 1 mM DTT (Schaeffer buffer without tRNA, supplemented with 125 mM NaCl); SoftLink avidin resin; temper
[2] = biological target: T1, FMRP; test: biotin-RNA affinity capture; 2 uM RNA; 50 mM Tris-HCl pH 7.4, 2 mM MgCl2, 150 mM KCl, 1 mM EDTA, 1 mM DTT (Schaeffer buffer without tRNA, supplemented with 125 mM NaCl); SoftLink avidin resin; temper

B1: 5'BC1-75 RNA, annealed (structured_RNA)
RNA: GGGGUUGGGGAUUUAGCUCAGUGGUAGAGCGCUUGCCUAGCAAGCGCAAGGCCCUGGGUUCGGUCCUCAGCUCU
[1]
  binding result: binds

B2: 3'BC1-60 RNA, annealed (structured_RNA)
RNA: AAAAAAGACAAAAUAACAAAAAGACCAAAAAAAAAACAAGGUAACUGGCACACACAACCUUU
[2]
  binding result: no binding
